2 substances from publication PMC10680704 can be followed below.

In the experiment the target is IGF2R ectodomain, recombinant, AlexaFlour488-labeled (UniProt P11717).

Turning to “G2 mCherry GELYTAC (IGF2 E6R, F19L, S39P), recombinant”, the EC50 of mCherry uptake by K562 cells stood at 16 nM.
In the case of “mCherry GELYTAC (original, wild-type IGF2), recombinant” it was 101 nM.
